Test results as given in article PMC3285688, “Active Site Mutations Change the Cleavage Specificity of Neprilysin” (PLoS ONE, 2012).
Where “and” joins values, the source holds several entries; their conditions need not be identical. Identical values can stand only once. Entries after “also recorded” stand apart in the source; their conditions may differ.

How the values were obtained:
Type in all cases: biochemical
insulin B chain [1] = test: Time course of product peak accumulation from insulin B chain
Description: As a representative of the NEP^F563 and NEP^S546 mutants, we compared the cleavage profile of NEP^F563L and NEP^S546E to that of NEP using time course experiments, Figure 2 . By adjusting the amount of NEP mutant used, the rate of hydrolysis of insulin B chain by all NEP forms was virtually identical. […] Since rates were based on peak areas measured at 214 nm, which in turn is dependent on both the number of peptide bonds and the number of aromatic residues within a given peptide, only the observed rates of change for a particular peptide product can be compared between enzyme forms. A comparison of the rate of change of different peaks within the same enzyme form or between enzyme forms is not valid under our conditions of analysis.
(§1) Cleavage of physiological peptides was measured via reverse phase high performance liquid chromatography (HPLC) following incubation of the purified NEP or its mutants with 15 µM insulin B chain (Sigma Aldrich), 24 µM Aß1–40 (Anaspec), or 64 µM leu-ENK (Sigma) in 100 µL of 20 mM MES, pH 6.5, at 37°C. Reactions were run in triplicate. HPLC was carried out in a Vydac C4 column using a linear gradient from 0.1% trifluoroacetic acid (TFA) in 95% water, 5% acetonitrile to 0.1% TFA in 50% acetonitrile/water at a flow rate of 1 mL/min. Peptides and hydrolysis products were detected at 214 nm and quantified by measuring peak areas. Peptides obtained from HPLC were analyzed on an Applied Biosystems 4800 MALDI TOF/TOF Proteomics Analyzer at the University of Kentucky Proteomics core. This facility is supported in part by grant P20RR020171 from the NIH/NCRR.

insulin B chain [2] = test: Insulin B chain as alternate substrate (competitive) inhibitor of Glut-Ala-Ala-Phe-MNA hydrolysis (Dixon plot); conditions: insulin B chain 1 to 40 µM as competitive inhibitor of Glut-Ala-Ala-Phe-MNA hydrolysis by the enzyme form, 37°C, 20 mM MES, pH 6.5, ID50 converted to Ki
Method: (§2) Kinetic constants for NEP and its mutants were obtained using the assay conditions noted above, but with Glut-Ala-Ala-Phe-MNA varied from 20 to 500 µM. Typically 12 data points were obtained. The data were fit to the Michaelis-Menten equation using Prism4 software. The Ki for insulin B chain was obtained by measuring the rate of Glut-Ala-Ala-Phe-MNA hydrolysis in the presence of varying concentrations of insulin B chain from 1 to 40 µM. Data were fit to a Dixon plot (1/rate versus [insulin B chain]) using Prism4 software and the ID50 obtained as the –x intercept, where ID50 corresponds to the concentration of insulin producing 50% inhibition. The actual Ki was obtained from the equation: ID50 = Ki (1+ [Glut-Ala-Ala-Phe-MNA]/KmGlut-Ala-Ala-Phe-MNA), [33].

insulin B chain [3] = test: Rate of insulin B chain hydrolysis (HPLC)
Method: as §1
(§3) Statistical analysis comparing wild-type NEP and its mutants was performed with Prism 4 software using a two-tailed paired t-test with a 95% confidence interval.

insulin B chain [4] = test: Dual substrate assay: insulin B chain hydrolysis in presence of leu-ENK; conditions: 15 µM insulin B chain and 64 µM leu-ENK together, 37°C, 20 mM MES buffer, pH 6.5
Method: (§4) The rate of cleavage of a substrate mixture is determined by both the kcat for that substrate as well by the affinity for the substrate. […] This is expected, given that each peptide acts as a competitive inhibitor of the other. […] That is the ratio for leu-ENK/insulin B chain cleavage is 3 for NEP^S546E compared to 6 for wild-type NEP.
as §1

Aß1–40 [5] = test: Time course of product peak accumulation from Aß1–40
Method: Similar to the analysis conducted with insulin B chain, the linear rate of product accumulation was determined for each peak and normalized to the amount of protein in the reaction, Table 7 . Unlike the hydrolysis of insulin B chain, the hydrolysis of Aß1–40, even at the earliest time points, produced products resulting from multiple cleavage events. Out of the 12 identified product peaks, only 3 could be produced by a single cleavage. Rates for all cleavages were calculated and are given in Figure 4, B–D , but only the three putative primary cleavage sites can be compared.
as §1

leu-ENK [6] = test: Dual substrate assay: leu-ENK hydrolysis in presence of insulin B chain; conditions: 15 µM insulin B chain and 64 µM leu-ENK together, 37°C, 20 mM MES buffer, pH 6.5
Method: as §4, §1

[7] = Hydrolysis of synthetic substrate Glut-Ala-Ala-Phe-MNA by NEP and mutants (fluorogenic)
Method: Reactions of 400 µl contained 100 µM Glut-Ala-Ala-Phe-MNA, 1 µg of aminopeptidase and 15 to 100 ng of NEP or mutant NEP depending on their activity in 20 mM MES buffer, pH 6.5. Activity was monitored with a Spectra Max Gemini XS plate reader using an excitation wavelength of 340 nm and an emission wavelength of 425 nm.
as §2

[8] = tested on: leu-ENK and insulin B chain; test: Dual substrate assay: substrate preference leu-ENK versus insulin B chain
Method: as §4, §1

Aß1–40 [9] = test: Rate of Aß1–40 hydrolysis (HPLC)
Method: as §1, §3

leu-ENK [10] = test: Rate of leu-ENK hydrolysis (HPLC)
Method: as §1, §3

[11] = 15 µM insulin B chain, 37°C, 20 mM MES, pH 6.5, 0-180 min, HPLC peak area 214 nm, linear phase
[12] = 24 µM Aß1–40, 37°C, 20 mM MES, pH 6.5, 0-360 min, HPLC peak area, linear phase

B1: NEP^F563L: neprilysin active site mutant, Phe563 to leucine (protein, UniProt P08473 2-750, looked up, variant F563L)
Neprilysin: GKSESQMDITDINTPKPKKKQRWTPLEISLSVLVLLLTIIAVTMIALYATYDDGICKSSDCIKSAARLIQNMDATTEPCTDFFKYACGGWLKRNVIPETSSRYGNFDILRDELEVVLKDVLQEPKTEDIVAVQKAKALYRSCINESAIDSRGGEPLLKLLPDIYGWPVATENWEQKYGASWTAEKAIAQLNSKYGKKVLINLFVGTDDKNSVNHVIHIDQPRLGLPSRDYYECTGIYKEACTAYVDFMISVARLIRQEERLPIDENQLALEMNKVMELEKEIANATAKPEDRNDPMLLYNKMTLAQIQNNFSLEINGKPFSWLNFTNEIMSTVNISITNEEDVVVYAPEYLTKLKPILTKYSARDLQNLMSWRFIMDLVSSLSRTYKESRNAFRKALYGTTSETATWRRCANYVNGNMENAVGRLYVEAAFAGESKHVVEDLIAQIREVFIQTLDDLTWMDAETKKRAEEKALAIKERIGYPDDIVSNDNKLNNEYLELNYKEDEYFENIIQNLKFSQSKQLKKLREKVDKDEWISGAAVVNAFYSSGRNQIVFPAGILQPPLFSAQQSNSLNYGGIGMVIGHEITHGFDDNGRNFNKDGDLVDWWTQQSASNFKEQSQCMVYQYGNFSWDLAGGQHLNGINTLGENIADNGGLGQAYRAYQNYIKKNGEEKLLPGLDLNHKQLFFLNFAQVWCGTYRPEYAVNSIKTDVHSPGNFRIIGTLQNSAEFSEAFHCRKNSYMNPEKKCRVW
Rate of accumulation of peak 1–5 (single cleavage H^5-L^6) (insulin B chain [1]; [11]): 83 Δarea/min/ng | Rate of accumulation of peak 1–10 (single cleavage H^10-L^11) (insulin B chain [1]; [11]): 135 Δarea/min/ng | Rate of accumulation of peak 1–11 (single cleavage L^11-V^12) (insulin B chain [1]; [11]): 16 Δarea/min/ng | Rate of accumulation of peak 1–14 (single cleavage A^14-L^15) (insulin B chain [1]; [11]): 266 Δarea/min/ng | Rate of accumulation of peak 1–16 (single cleavage Y^16-L^17) (insulin B chain [1]; [11]): 25 Δarea/min/ng | Rate of accumulation of peak 15–23 (two cleavages A^14-L^15, G^23-F^24) (insulin B chain [1]; [11]): 64 Δarea/min/ng | Rate of accumulation of peak 15–30 (single cleavage A^14-L^15) (insulin B chain [1]; [11]): 282 Δarea/min/ng | Rate of accumulation of peak 17–24 (two cleavages Y^16-L^17, F^24-F^25) (insulin B chain [1]; [11]): 25 Δarea/min/ng | Rate of accumulation of peak 17–30 (single cleavage Y^16-L^17) (insulin B chain [1]; [11]): 112 Δarea/min/ng | Rate of accumulation of peak 24–30 (single cleavage G^23-F^24) (insulin B chain [1]; [11]): 290 Δarea/min/ng | Unique or missing cleavage sites in insulin B chain versus NEP (insulin B chain [1]; 30% substrate hydrolysis, HPLC profile): no unique or missing cleavage sites | Cleavage at A^14-L^15 in insulin B chain relative to NEP (insulin B chain [1]; times the NEP rate): ~1.4 | Cleavage at H^5-L^6 in insulin B chain relative to NEP (insulin B chain [1]; times the NEP rate): ~1.4 | Cleavage at H^10-L^11 in insulin B chain relative to NEP (insulin B chain [1]; times the NEP rate): 0.8 | Cleavage at L^11-V^12 in insulin B chain relative to NEP (insulin B chain [1]; times the NEP rate): 0.2 | Cleavage at Y^16-L^17 in insulin B chain relative to NEP (insulin B chain [1]; times the NEP rate): ~0.7 | Ki (insulin B chain [2]): 1500 ± 300 nM | Rate of hydrolysis of Insulin B Chain (insulin B chain [3]; 15 µM insulin B chain, 37°C, 20 mM MES buffer, pH 6.5, disappearance of substrate by HPLC, at least triplicate): 1.17 ± 0.18 pmol/min/ng | Insulin B chain hydrolysis rate relative to NEP (insulin B chain [3]; overall rate, 15 µM insulin B chain): 1.4 times | Preference for insulin B chain over Aß1–40 (insulin B chain [3]; relative to NEP, from separate single-substrate rates): greater than 2 fold | Insulin B Chain hydrolysis rate, dual substrate assay (insulin B chain [4]): 0.19 ± 0.03 pmol/min/ng | Accumulation rate of peak Aß 1–9 (single cleavage G^9-Y^10) (Aß1–40 [5]; [12]): 0 Δarea/min/ng | Accumulation rate of peak Aß 1–16 (single cleavage K^16-L^17) (Aß1–40 [5]; [12]): 17 Δarea/min/ng | Accumulation rate of peak Aß 1–17 (single cleavage L^17-V^18) (Aß1–40 [5]; [12]): 22 Δarea/min/ng | Accumulation rate of peak Aß 4–9 (dual cleavages A^3-F^4, G^9-Y^10) (Aß1–40 [5]; [12]): 5 Δarea/min/ng | Accumulation rate of peak Aß 4–16 (dual cleavages A^3-F^4, K^16-L^17) (Aß1–40 [5]; [12]): 5 Δarea/min/ng | Accumulation rate of peak Aß 4–17 (dual cleavages A^3-F^4, L^17-V^18) (Aß1–40 [5]; [12]): 12 Δarea/min/ng | Accumulation rate of peak Aß 10–16 (dual cleavages G^9-Y^10, K^16-L^17) (Aß1–40 [5]; [12]): 11 Δarea/min/ng | Accumulation rate of peak Aß 10–17 (dual cleavages G^9-Y^10, L^17-V^18) (Aß1–40 [5]; [12]): 8 Δarea/min/ng | Accumulation rate of peak Aß 12–17 (dual cleavages E^11-V^12, L^17-V^18) (Aß1–40 [5]; [12]): 1 Δarea/min/ng | Accumulation rate of peak Aß 20–28 (dual cleavages F^19-F^20, K^28-G^29) (Aß1–40 [5]; [12]): 5 Δarea/min/ng | Accumulation rate of peak Aß 20–29 (dual cleavages F^19-F^20, G^29-A^30) (Aß1–40 [5]; [12]): 6 Δarea/min/ng | Accumulation rate of peak Aß 20–30 (dual cleavages F^19-F^20, A^30-I^31) (Aß1–40 [5]; [12]): 26 Δarea/min/ng | Presence of wild-type product peaks from Aß1–40 (in words) (Aß1–40 [5]; HPLC profile at ∼30% hydrolysis, Aß1–9 peak in case of NEP^F563L): the peak corresponding to Aß1–9 was not present | Cleavage at L^17-V^18 in Aß1–40 relative to wild-type NEP (Aß1–40 [5]; product Aß1–17): 25% | Cleavage of the G^9-Y^10 bond in Aß1–40 (in words) (Aß1–40 [5]; versus NEP, inferred from Aß1–9, Aß10–17): much slower rate; also recorded: appears to cleave the G^9-Y^10 bond | leu-ENK hydrolysis rate, dual substrate assay (leu-ENK [6]): 0.97 ± 0.06 pmol/min/ng | leu-ENK hydrolysis, activity relative to the uninhibited value (leu-ENK [6]; numbers in parenthesis): 0.62 | Activity relative to wild-type enzyme (Figure S2 legend, in words) [7]: same activity as wild-type enzyme | Specific Activity (Glut-Ala-Ala-Phe-MNA cleavage) ([7]; 100 µM Glut-Ala-Ala-Phe-MNA, 37°C, 20 mM MES buffer, pH 6.5, fluorescence ex 340 nm, em 425 nm): 44 pmol/min/ng and 43.6 ± 0.1 pmol/min/ng | Km ([7]; Glut-Ala-Ala-Phe-MNA 20 to 500 µM, 37°C, 20 mM MES buffer, pH 6.5, Michaelis-Menten fit): 81 ± 11 µM | Substrate preference leu-ENK/insulin B chain (in words) ([8]; dual substrate assay, versus wild-type): no change in overall substrate preference | Ratio leu-ENK insulin B chain ([8]; ratio of rates, 15 µM insulin B chain and 64 µM leu-ENK together): 5.1 | Rate of hydrolysis of Aß1–40 (Aß1–40 [9]; 24 µM Aß1–40, 37°C, 20 mM MES buffer, pH 6.5, disappearance of substrate by HPLC, at least triplicate): 116 ± 4 fmol/min/ng | Aß1–40 hydrolysis rate relative to wild-type NEP (Aß1–40 [9]; overall rate as fraction/times of wild-type rate, 24 µM Aß1–40): nearly half the rate of the wild-type enzyme | Rate of hydrolysis of leu-ENK (leu-ENK [10]; 64 µM leu-ENK, 37°C, 20 mM MES buffer, pH 6.5, disappearance of substrate by HPLC, at least triplicate): 1.57 ± 0.32 pmol/min/ng | leu-ENK cleavage rate relative to wild-type NEP rate (leu-ENK [10]; 64 µM leu-ENK, pH 6.5, 37°C): approximately 80% | Activity for both Glut-Ala-Ala-Phe-MNA and leu-ENK (in words) (leu-ENK [10]; versus wild-type): near wild-type levels of activity
